Source: paper PMC9512702

Experiments:
[1] = molecular target: mammalian expressed RBD (mRBD) of SARS-CoV-2 spike (SARS-CoV-2) (UniProt P0DTC2); test: SPR
[2] = molecular target: mammalian expressed RBD (mRBD) of SARS-CoV-2 spike (SARS-CoV-2) (UniProt P0DTC2); test: nanoDSF thermal shift
[3] = molecular target: mammalian expressed RBD (mRBD) of SARS-CoV-2 spike (SARS-CoV-2) (UniProt P0DTC2); test: SEC-MALS

- Kd [1]: 0.042 nM
- other [2]: 16 °C
- stoichiometry N [3]: 1 LCB1:RBD
Substance: LCB1 (designed binder)
